Measurements reported in patent US11098109B2, “Single-chain variable fragment anti-CD133 antibodies and uses thereof” (REGENTS OF THE UNIVERSITY OF MINNESOTA, priority 2010, dated 2021).
“Also recorded” adds a separate entry of the source.

T1: CD133 (Homo sapiens, UniProt O43490)
T1 construct: endogenous in cells
T1 sequence (O43490 20-865): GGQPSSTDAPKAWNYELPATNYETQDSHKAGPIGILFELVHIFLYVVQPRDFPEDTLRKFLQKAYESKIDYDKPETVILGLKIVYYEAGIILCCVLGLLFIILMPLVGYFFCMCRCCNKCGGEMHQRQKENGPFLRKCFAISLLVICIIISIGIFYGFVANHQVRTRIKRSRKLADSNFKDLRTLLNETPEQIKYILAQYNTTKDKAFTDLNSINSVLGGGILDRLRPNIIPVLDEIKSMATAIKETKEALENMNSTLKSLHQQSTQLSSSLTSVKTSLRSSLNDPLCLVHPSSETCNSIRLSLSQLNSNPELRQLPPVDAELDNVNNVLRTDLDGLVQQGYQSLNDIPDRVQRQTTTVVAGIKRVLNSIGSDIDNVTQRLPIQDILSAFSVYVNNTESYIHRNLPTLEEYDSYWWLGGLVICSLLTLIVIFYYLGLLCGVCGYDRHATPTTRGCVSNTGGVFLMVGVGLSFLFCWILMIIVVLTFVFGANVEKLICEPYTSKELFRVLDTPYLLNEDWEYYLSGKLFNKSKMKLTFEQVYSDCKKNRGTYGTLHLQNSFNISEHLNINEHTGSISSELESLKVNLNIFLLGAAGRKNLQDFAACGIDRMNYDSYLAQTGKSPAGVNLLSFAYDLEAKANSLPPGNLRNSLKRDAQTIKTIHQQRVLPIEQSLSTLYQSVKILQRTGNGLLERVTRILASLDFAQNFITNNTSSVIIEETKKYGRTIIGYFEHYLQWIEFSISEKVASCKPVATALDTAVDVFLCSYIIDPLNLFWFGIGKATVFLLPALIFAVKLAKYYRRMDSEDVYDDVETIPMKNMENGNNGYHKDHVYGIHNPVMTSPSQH

B1: No. 11 scFv: soluble scFv of the Hybridoma Clone 7 antibody expressed in E. coli Top10F', SEQ ID NO:58; also used FITC-labeled (protein)
scFv: MDIVLSQSPAIMSASPGEKVTISCSASSSVSYMYWYQQKPGSSPKPWIYRTSNLASGVPARFSGSGSGTSYSLTISSMEAEDAATYYCQQYHSYPPTFGAGTKLELKSSGGGGSGGGGGGSSRSSLEVKLVESGPELKKPGETVKISCKASGYTFTDYSMHWVNQAPGKGLKWMGWINTETGEPSYADDFKGRFAFSLETSASTAYLQINNLKNEDTATYFCATDYGDYFDYWGQGTTLTVSS
modifications: optionally FITC-labeled; scFv polypeptide
B2: Hybridoma Clone 7: monoclonal antibody produced by Hybridoma Clone 7 that specifically binds to human CD133 (antibody, V domains shown)
VL: DIVLSQSPAIMSASPGEKVTISCSASSSVSYMYWYQQKPGSSPKPWIYRTSNLASGVPARFSGSGSGTSYSLTISSMEAEDAATYYCQQYHSYPPTFGAGTKLELK
VH: LEVKLVESGPELKKPGETVKISCKASGYTFTDYSMHWVNQAPGKGLKWMGWINTETGEPSYADDFKGRFAFSLETSASTAYLQINNLKNEDTATYFCATDYGDYFDYWGQGTTLTVSS

Assays:
[1] = target: T1, CD133; experiment: Flow cytometry of FITC-labeled CD133scFv on CD133-transfected HEK293-TLR2 cells; assay type: binding; conditions: CD133-transfected vs control HEK293-TLR2 cells; listed as CD133scFv
Method: FIG. 4: CD133scFV recognizes the CD133 marker. The CD133scFv was labeled with FITC. An oligonucleotide was prepared from the known GenBank sequence of CD133 and then transfected into HEK293-TLR2 cells using a polyethylenimine (PEI)-DNA complex. The cells were incubated with anti-CD133scFv-FITC complex, washed, and then analyzed by flow cytometry. Data are represented in standard histogram format whereby % positive cells are plotted against fluorescence intensity. […] Controls include transfected cells reacted with empty vector, transfected cells reacted with an isotype control, or untransfected cells that are not reacted with CD133-FITC.
Ult-Luc or CMV-CD133 pDNA constructs were transfected into HEK293-TLR2 cells using JetPEI transfection reagent according to the manufacturer's instructions (Polyplus Transfection). Briefly, 7.5×10^5 cells/well were seeded in a 6-well plate. Twelve hours later, 2.5 μg of each pDNA were diluted in 5 μl 5% dextrose and mixed with 0.35 μL JetPEI also in 5 μl 5% dextrose. Following incubation for 15 minutes, the transfection mix was added to the cells. […]
CD133scFv was labeled with FITC at a FITC:scFv ratio of 24:1 (Invitrogen, Carlsbad, Calif.) and dialyzed to remove any free unbound FITC. […] Data are represented in standard histogram format whereby % positive cells are plotted against fluorescence intensity. […]

[2] = target: T1, CD133; experiment: Western blot screening of hybridoma supernatants on Caco-2 lysates; assay type: binding; conditions: CD133^+ Caco-2 cell lysates
Method: FIG. 2: Analysis of the newly generated CD133 hybridoma. Supematants of hybridoma clones were tested as a primary antibody in western blot (A) and Immunofluorescence (B) assays. Pre-immunized serum (-ve) or post immune anti sera (a.s.) served as controls. For western blot, Caco-2 lysates normalized for protein concentration were loaded onto a SDS-PAGE gel, resolved, blotted onto a nitrocellulose membrane and cut into strips. Each strip was probed with supernatant from the identified hybridoma. Membrane in Lane 1 was probed with a commercially available antibody (ab 19898, Abcam) and served as an additional positive control. For immunofluorescence, Caco-2 cells were fixed and immunostained with the hybridoma supernatants. A commercially available antibody (293C3, Militenyi) was used as additional positive control. Scale bars in the panel represent 200 micrometers. Supernatant of Hybridoma Clone 7 was used in the immunohistochemical analysis of primary glioblastoma and kidney tissue (C).
Caco-2 cells were lysed in RIPA buffer (Thermo Scientific, Waltham. Mass.) and centrifuged at 10,000 rpm and 4° C. to remove debris. The protein concentration of cell lysates was measured using BCA protein assay kit (Thermo Scientific, Waltham, Mass.), with bovine serum albumin as the standard. […]

Molecule | reaction of FITC-labeled scFv with cells [1] | Western blot band with hybridoma supernatant [2]
B1 | Only the CD133-transfected cells reacted; also recorded: Only the CD133 transfected cells reacted | –
B2 | – | distinct band corresponding to the predicted molecular weight of CD133
